Consider 14 molecules from patent US20140044738A1 (AstraZeneca / MedImmune, published 2014).

The target of test [1] is human PD-1, full length, expressed on the cell surface (human) (UniProt Q15116). As to the kind of experiment: flow cytometry: human primary CD8 T cells, CD45RA low; PD-1 as the cells express it.
For test [2] the target is unchanged. As to the kind of experiment: flow cytometry: human primary CD8 T cells, CD45RA med; PD-1 as the cells express it. In general terms: Flow cytometry measures light scatter and fluorescence of single cells or particles in a stream.
Test [3] has the same target. Briefly: flow cytometry: human primary CD4 T cells, CD45RA low; PD-1 as the cells express it.
Test [4] shares this target. As to the kind of experiment: flow cytometry: human primary CD4 T cells, CD45RA med; PD-1 as the cells express it.
The target is the same in test [5]. Briefly: flow cytometry: human primary CD8 T cells, CD45RA high; PD-1 as the cells express it.
For test [6] the target is unchanged. As to the kind of experiment: flow cytometry: human primary CD4 T cells, CD45RA high; PD-1 as the cells express it.
Test [7] addresses T1, human B7-H1, full length, expressed on the cell surface (human, UniProt Q9NZQ7 19-290).
T1 construct: whole, on cells; also called CHO-hB7-H1; CHO-B7-H1 cells
As to the kind of experiment: flow cytometry on CHO cells expressing human B7-H1, median fluorescence intensity.

Test [8] concerns the target human PD-1, full length, expressed on the cell surface (human) (UniProt Q15116). As to the kind of experiment: flow cytometry: CHO cells with full-length human PD-1 pre-incubated with Ctl Ig, then hB7-DC mIg + a-mIg-APC; a-mIg-APC alone MFI=10.
For test [9], the target named is T2, human PD-1 (form in the assay not stated) (human, UniProt Q15116 25-167, limits assumed).
T2 construct: Used for the kinetic constants and EC50 values whose assay format is not described
Briefly: method not stated.

The target of test [10] is T3, human PD-1, full length, expressed on the cell surface (human, UniProt Q15116 25-288). Briefly: cell-based or functional assay.
For test [11], the target named is T2, human PD-1 (form in the assay not …). Briefly: PD-1-specific binding at 0 to approximately 350 nM antibody (FIG. 20); format not stated.
The target of test [12] is T4, human PD-1-Fc (human, UniProt Q15116 25-167, limits assumed, biotinylated in the B7-DC blocking ELISA).
T4 construct: also called hPD-1-Fc; biotinylated PD-1-Fc
Briefly: blocking, flow cytometry, by paragraph 273: the construct binds hPD-1-Fc and blocks its binding to hB7-H1 expressed by CHO cells (the legend paragraph 64 calls it a binding curve on CHO.hPD-1 cells; the curve falls). Also on record: unit not given here.

In test [13] the target is T4, human PD-1-Fc. Briefly: ELISA: hybridoma supernatant on immobilised rhPD-1/Fc, anti-mouse IgG. Here is the method:
Splenocytes from anti-PD-1 positive animals were fused with myeloma cells following standard protocol. The resulting murine hybridomas were screened for those that express high affinity human PD-1-immunoreactive monoclonal antibodies. Antibodies were additionally evaluated to determine whether they were IgG or IgM antibodies. […] Hybridoma supernatants were then placed in contact with the support, and the presence of anti-PD-1 antibody was determined using labeled anti-mouse IgG or anti-mouse IgM.

For test [14], the target named is T3, human PD-1, full length, expressed on …. Briefly: cell-based competition: CHO-hPD1 cells, antibody 30 min, then 10 µg/ml APC-labeled B7-DC-Fc; axis 100 to 0 without a unit (text: 0-0.1 mg/ml). Here is the method: A cell-based competition assay was performed by incubating 50,000 CHO-hPD1 cells for 30 minutes with anti-PD-1 antibody (present at concentrations ranging from 0-0.1 mg/ml). […] The competition was repeated at a fixed antibody concentration of 20 μg/mL (FIG. 11).

T2 sequence (Q15116 25-167 limits assumed): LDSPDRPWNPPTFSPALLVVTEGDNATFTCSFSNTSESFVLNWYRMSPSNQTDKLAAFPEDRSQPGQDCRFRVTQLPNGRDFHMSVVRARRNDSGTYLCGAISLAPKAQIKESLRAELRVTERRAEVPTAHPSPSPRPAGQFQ
Sequence of human PD-1, full length, expressed on the cell surface (human) (Q15116 25-288): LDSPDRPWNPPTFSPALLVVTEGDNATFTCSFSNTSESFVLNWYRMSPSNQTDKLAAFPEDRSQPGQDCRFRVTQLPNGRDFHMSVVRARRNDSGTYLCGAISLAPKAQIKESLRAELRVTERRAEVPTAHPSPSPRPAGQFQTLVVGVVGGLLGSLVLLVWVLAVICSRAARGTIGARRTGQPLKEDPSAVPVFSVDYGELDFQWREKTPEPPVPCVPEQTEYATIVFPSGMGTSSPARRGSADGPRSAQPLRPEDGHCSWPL
T1 sequence (Q9NZQ7 19-290): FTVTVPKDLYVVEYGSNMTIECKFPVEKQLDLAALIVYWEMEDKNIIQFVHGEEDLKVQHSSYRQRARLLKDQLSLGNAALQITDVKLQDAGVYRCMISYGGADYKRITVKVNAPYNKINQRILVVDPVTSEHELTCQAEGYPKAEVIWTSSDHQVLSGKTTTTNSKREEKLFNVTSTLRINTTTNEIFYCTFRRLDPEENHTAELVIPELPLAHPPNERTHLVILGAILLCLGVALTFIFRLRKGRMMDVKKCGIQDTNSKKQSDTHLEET
T4 sequence (Q15116 25-167 limits assumed): as the sequence (Q15116 25-167 limits assumed) above
T3 sequence (Q15116 25-288): as the sequence (Q15116 25-288) above

In the case of SYNAGIS (antibody), the number over the gate of positive cells in test [1] came to 1.6; in test [2], 1.6; in test [3] it was 2.1; in [4] it was 1.1; in test [5], 1.5; in test [6] it was 1.4.

B1: Anti-Human B7-H1 Clone 3D10 (antibody, V domains shown)
VH: EVQLQQSGPDLVTPGASVRISCQASGYTFPDYYMNWVKQSHGKSLEWIGDIDPNYGGTTYNQKFKGKAILTVDRSSSTAYMELRSLTSEDSAVYYCARGALTDWGQGTSLTVSS
VL: QIVLSQSPAILSASPGEKVTMTCRASSSVSYIYWFQQKPGSSPKPWIYATFNLASGVPARFSGSGSGTSYSLTISRVETEDAATYYCQQWSNNPLTFGAGTKLELK
notes: Murine hybridoma IgG
In [7], B1 gave an MFI of 53100.

B2: B7-DC-Fc (Fc fusion, part only; not given: Fc part, human, UniProt Q9BQ51 20-220, looked up, part only)
chain, part: LFTVTVPKELYIIEHGSNVTLECNFDTGSHVNLGAITASLQKVENDTSPHRERATLLEEQLPLGKASFHIPQVQVRDEGQYQCIIIYGVAWDYKYLTLKVKASYRKINTHILKVPETDEVELTCQATGYPLAEVSWPNVSVPANTSHSRTPEGLYQVTSVLRLKPPPGRNFSCVFWNTHVRELTLASIDLQSQMEPRTHPT
modifications: APC-labeled or biotinylated in the cell-based assays
Take B2: the MFI in [8] amounted to 2930.

B3: 1H3 Construct (chimeric murine anti-human PD-1 Fab regions of antibody 1H3 and a human IgG1 Fc region) (antibody, V domains shown)
VH: EVQLVESGGGLVKPGGSLKLSCAASGFTFSDYGMHWVRQAPEKGLEWVAYISSGSYTIYYTDTVKGRFTISRDNAKNTLFLQMTSLRSEDTAMYYCARRGYGSFYEYYFDYWGQGTTLTVSS
VL: QIVLTQSPALMSASPGEKVTMTCSASSSVSYMYWYQQKPRSSPKPWIYLTSNLASGVPARFSGSGSGTSYSLTISSMEAEDAATYYCQQWSSNPFTFGSGTKLEIK
notes: also called 1H3 anti-human PD-1 chimeric antibody; chimeric 1H3
Take B3: in test [9], the dissociation constant Kd worked out at 2.19 nM, the koff was found to be 0.000161 s⁻¹ and the kon came out at 73400 M⁻¹ s⁻¹. This molecule also returned a T cell proliferation in test [10] of roughly 7 fold. In test [11], this molecule displayed an EC50 of 3 nM. The “IC50 (read off the curve)” value with human PD-1-Fc [12] was roughly 100.

B4: h1H3 Var 2 (antibody, V domains shown)
VH: EVQLVESGGGLVQPGGSLRLSCAASGFTFSDYGMHWVRQAPGKGLEWVAYISSGSYTIYYADSVKGRFTISRDNAKNTLYLQMSSLRAEDTAVYYCARRGYGSFYEYYFDYWGQGTTVTVSS
VL: EIVLTQSPATLSLSPGERATLSCRASSSVSYMYWYQQKPGQAPRLLIYLASNRATGIPARFSGSGSGTDYTLTISSLEPEDFAVYYCQQWSSNPFTFGQGTKLEIK
notes: Humanized variable domains LC1_1 / HC1_2
Regarding B4, in test [11], the EC50 was 3 nM.

B5: h1H3 Var 4 (antibody, V domains shown)
VH: EVQLVESGGGLVQPGGSLRLSCAASGFTFSDYGMHWVRQAPGKGLEWVSYISSGSSTIYYADSVKGRFTISRDNAKNTLYLQMSSLRAEDTAVYYCARRGYGSFYEYYFDYWGQGTTVTVSS
VL: QIVLTQSPATLSLSPGERATLSCSASSSVSYMYWYQQKPGQAPRLLIYLTSNRATGIPARFSGSGSGTDYTLTISSLEPEDFAVYYCQQWSSNPFTFGQGTKLEIK
notes: Humanized variable domains LC1_2 / HC1_1
In the case of B5, in test [11], the EC50 is 6 nM.

B6: h1H3 Var 1 (antibody, V domains shown)
VH: EVQLVESGGGLVQPGGSLRLSCAASGFTFSDYGMHWVRQAPGKGLEWVSYISSGSSTIYYADSVKGRFTISRDNAKNTLYLQMSSLRAEDTAVYYCARRGYGSFYEYYFDYWGQGTTVTVSS
VL: EIVLTQSPATLSLSPGERATLSCRASSSVSYMYWYQQKPGQAPRLLIYLASNRATGIPARFSGSGSGTDYTLTISSLEPEDFAVYYCQQWSSNPFTFGQGTKLEIK
notes: Humanized variable domains LC1_1 / HC1_1
In the case of B6, the half-maximal effective concentration (EC50) in [11] worked out at 6 nM.

B7: h1H3 Var 3 (antibody, V domains shown)
VH: EVQLVESGGGLVQPGGSLRLSCAASGFTFSDYGMHWVRQAPGKGLEWVAYISSGSYTIYSADSVKGRFTISRDNAKNTLYLQMSSLRAEDTAVYYCARRGYGSFYEYYFDYWGQGTTVTVSS
VL: EIVLTQSPATLSLSPGERATLSCRASSSVSYMYWYQQKPGQAPRLLIYLASNRATGIPARFSGSGSGTDYTLTISSLEPEDFAVYYCQQWSSNPFTFGQGTKLEIK
notes: Humanized variable domains LC1_1 / HC1_3
On to B7, for which a half-maximal response in test [11] (EC50) required 3 nM.

B8: h1H3 Var 6 (antibody, V domains shown)
VH: EVQLVESGGGLVQPGGSLRLSCAASGFTFSDYGMHWVRQAPGKGLEWVAYISSGSYTIYSADSVKGRFTISRDNAKNTLYLQMSSLRAEDTAVYYCARRGYGSFYEYYFDYWGQGTTVTVSS
VL: QIVLTQSPATLSLSPGERATLSCSASSSVSYMYWYQQKPGQAPRLLIYLTSNRATGIPARFSGSGSGTDYTLTISSLEPEDFAVYYCQQWSSNPFTFGQGTKLEIK
notes: Humanized variable domains LC1_2 / HC1_3
Consider B8, for which, in test [11], the EC50 was determined as 3 nM.

B9: h1H3 Var 5 (antibody, V domains shown)
VH: EVQLVESGGGLVQPGGSLRLSCAASGFTFSDYGMHWVRQAPGKGLEWVAYISSGSYTIYYADSVKGRFTISRDNAKNTLYLQMSSLRAEDTAVYYCARRGYGSFYEYYFDYWGQGTTVTVSS
VL: QIVLTQSPATLSLSPGERATLSCSASSSVSYMYWYQQKPGQAPRLLIYLTSNRATGIPARFSGSGSGTDYTLTISSLEPEDFAVYYCQQWSSNPFTFGQGTKLEIK
notes: Humanized variable domains LC1_2 / HC1_2
B9 gave an EC50 in [11] of 3 nM.

B10: Anti-Human B7-H1 Clone 3B6 (antibody, V domains shown)
VL: DIVMTQSPAIMSASPGEKVTMTCSASSSIRYMHWYQQKPGTSPKRWISDTSKLTSGVPARFSGSGSGTSYALTISSMEAEDAATYYCHQRSSYPWTFGGGTKLEIK
V domain: EVKLQESGPSLVKPGASVKLSCKASGYTFTSYDINWVKQRPGQGLEWIGWIFPRDNNTKYNENFKGKATLTVDTSSTTAYMELHSLTSEDSAVYFCTKENWVGDFDYWGQGTTLTLSS
notes: Murine hybridoma IgG
In turn, B10 displayed an MFI in [7] of 59600.

B11: Anti-Human B7-H1 Clone 1E12 (antibody, V domains shown)
VH: EVKLQESGPSLVKPSQTLSLTCSVTGYSITSDYWNWIRKFPGNKLEYVGYISYTGSTYYNPSLKSRISITRDTSKNQYYLQLNSVTSEDTATYYCARYGGWLSPFDYWGQGTTLTVSS
VL: DIVMTQSHKLMSTSVGDRVSITCKASQDVGTAVAWYQQKPGQSPKLLIYWASTRHTGVPDRFTGSGSGTDFTLTISNVQSEDLADYFCQQDSSYPLTFGAGTKVELK
notes: Murine hybridoma IgG
In test [7], B11 registered an MFI of 56200.

B12: Anti-Human B7-H1 Clone 1F4 (antibody, V domains shown)
VH: EVQLQESGPGLVAPSQSLSITCTVSGFSLTTYSINWIRQPPGKGLEWLGVMWAGGGTNSNSVLKSRLIISKDNSKSQVFLKMNSLQTDDTARYYCARYYGNSPYYAIDYWGQGTSVTVSS
VL: DIVTTQSHKLMSTSVGDRVSITCKASQDVGTAVAWYQQKPGQSPKLLIYWASTRHTGVPDRFTGSGSGTDFTLTISNVQSEDLADYFCQQDSSYPLTFGAGTKVELK
notes: Murine hybridoma IgG
For B12, the MFI in [7] came to 62000.

B13: Anti-Human PD-1 Clone 1E3 (antibody, IgG1, V domains shown)
VH: EVQLQQSGPVLVKPGASVKMSCKASGYTFTDYYMNWVKQSHGKSLEWIGNINPYNGGTTYNQKFKGKATLTVDKSSRTAYMEINSLTSEDSAVYYCARGRIYDGSLDYWGQGTALTVSS
VL: DIQMTQFPSSLCASQGGKVTVTCKASQDINNYMAWYQHKPGKGPRLLIHYTSTLLSGIPSRFSGSGSGRDYSFSISNLEPEDIATYYCLQYDNLWTFGGGTKLEIK
notes: Murine hybridoma antibody, IgG1/kappa
B13: the binding result (with human PD-1-Fc [13]; in test [14]) was “binds” each time.

What is called Kd is the constant that tells how readily two partners part at equilibrium. The term koff denotes the first-order rate constant of dissociation. The kon is the second-order rate constant of association. As a reminder, the EC50 is the concentration needed to bring the measured effect to its halfway point.
